How the values were obtained:
[1] = molecular target: PHCP L76V variant (Hydrogenophilus thermoluteolus); assay: AUC; sedimentation velocity of the single variants, data not shown; the same analysis as for the wild-type
[2] = molecular target: PHCP T17E variant (Hydrogenophilus thermoluteolus); assay: as above
[3] = molecular target: PHCP F11T variant (Hydrogenophilus thermoluteolus); assay: as above
[4] = molecular target: PHCP T17E/A20G/L76V triple variant (Hydrogenophilus thermoluteolus); assay: AUC; sedimentation velocity, 5 μM protein, 10 mM Tris-HCl (pH 7.5) with 100 mM NaCl, 20°C, 42,000 rpm, c(s) model in SEDFIT; n = 1
[5] = molecular target: PHCP F11T/T18F/F71D triple variant (Hydrogenophilus thermoluteolus); assay: as above
[6] = molecular target: PHCP F71D variant (Hydrogenophilus thermoluteolus); assay: AUC; sedimentation velocity of the single variants, data not shown; the same analysis as for the wild-type
[7] = molecular target: T1, PHCP (Hydrogenophilus thermoluteolus cytochrome c') (Hydrogenophilus thermoluteolus, UniProt F7J213); assay: visible absorption spectroscopy; format: binding; conditions: reduced (dithionite) protein 6 uM; 0.5% (v/v) ligand; 10 mM potassium phosphate pH 7.0; 25 C; isomer of butyl group not stated
T1 construct: gene cytc; mature protein, N-terminal DALKP; authentic protein from H. thermoluteolus cells for crystal
T1 sequence (F7J213 20-154): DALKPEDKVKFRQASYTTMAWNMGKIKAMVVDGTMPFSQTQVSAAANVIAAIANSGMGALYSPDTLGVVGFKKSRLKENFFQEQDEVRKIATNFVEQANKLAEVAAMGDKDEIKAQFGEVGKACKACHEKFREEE

[8] = molecular target: PHCP A20G variant (Hydrogenophilus thermoluteolus); assay: AUC; sedimentation velocity of the single variants, data not shown; the same analysis as for the wild-type
[9] = molecular target: PHCP T18F variant (Hydrogenophilus thermoluteolus); assay: as above
[10] = molecular target: recombinant PHCP wild-type (Hydrogenophilus thermoluteolus); assay: AUC; sedimentation velocity, 5 μM protein, 10 mM Tris-HCl (pH 7.5) with 100 mM NaCl, 20°C, 42,000 rpm, c(s) model in SEDFIT; n = 1

With PHCP L76V variant (natural protein) the stoichiometry N [1] was 2.
Compound PHCP T17E variant (natural protein) has a stoichiometry N [2] of 2.
For PHCP F11T variant (natural protein), the stoichiometry N [3] was 2.
“PHCP T17E/A20G/L76V triple variant (natural protein)” was tested, and the population of the dimer species [4] was 91.1% and the stoichiometry N [4] was 2.
With “PHCP F11T/T18F/F71D triple variant (natural protein)” the population of the dimer species [5] was 97.7% and the stoichiometry N [5] was 2.
PHCP F71D variant (natural protein) showed a stoichiometry N [6] of 2.
For [C-]#[N+]CCCC [butyl-isocyanide], the visible absorption spectroscopy [7] was “PHCP is able to bind CO, NO, and large ligands such as butyl‐isocyanide and imidazole”.
For PHCP A20G variant (natural protein), the stoichiometry N [8] was 2.
Work on PHCP T18F variant (natural protein) yielded a stoichiometry N [9] of 2.
“recombinant PHCP wild-type (natural protein)” was tested, and the population of the dimer species [10] was 99.9% and the stoichiometry N [10] was 2.

Reference: PMC5368077, “Structural and functional insights into thermally stable cytochrome c′ from a thermophile” (Protein Science : A Publication of the Protein Society, 2017)
